Changes are numbered by the printed parent chain. Names may count otherwise.
B1: His6-tag human thymidylate synthase (HT-hTS), wild type (enzyme, UniProt P04818 1-313, looked up)
chain: MPVAGSELPRRPLPPAAQERDAEPRPPHGELQYLGQIQHILRCGVRKDDRTGTGTLSVFGMQARYSLRDEFPLLTTKRVFWKGVLEELLWFIKGSTNAKELSSKGVKIWDANGSRDFLDSLGFSTREEGDLGPVYGFQWRHFGAEYRDMESDYSGQGVDQLQRVIDTIKTNPDDRRIIMCAWNPRDLPLMALPPCHALCQFYVVNSELSCQLYQRSGDMGLGVPFNIASYALLTYMIAHITGLKPGDFIHTLGDAHIYLNHIEPLKIQLQREPRPFPKLRILRKVEKIDDFKAEDFQIEGYNPHPTIKMEMAV
notes: human thymidylate synthase (TS, EC 2.1.1.45); The non-cleavable N-terminal His6-tag comes from the pQE80L plasmid; also called wild-type hTS; human TS; not shown: His6, N-terminal, kept
B2: His6-tag human thymidylate synthase variant Q62R (HT-hTS Q62R) (enzyme, UniProt P04818 1-313, looked up)
chain: B1 chain with Q62R
modifications: Cys195 modified as S,S-(2-hydroxyethyl)thiocysteine (CME195) in the crystal, by reaction with beta-mercaptoethanol
notes: human thymidylate synthase (TS, EC 2.1.1.45) with Gln62 replaced by arginine; plasmid pQE80L-hTS-Q62R made by site-directed mutagenesis of pQE80L-hTS; Non-cleavable N-terminal His6-tag (twelve residues belong to the tag); in the crystal the first twenty-five N-terminal residues and the tag are not traced; also called Q62R variant; not shown: His6, N-terminal, kept

Key:
[1] = target: the molecule itself; assay: SEC; HiLoad 16/600 Superdex 75pg, last step of purification, sample dialysed in buffer A (50 mM HEPES pH 7.5, 30 mM NaCl); profile not shown
[2] = target: the molecule itself; assay: crystal structure; X-ray, 2.55 A, space group P2(1)22(1), four homodimers (eight subunits) in the asymmetric unit; crystals from 2.0-2.2 M ammonium sulfate, 100 mM bicine pH 9.0, with 20 mM beta-mercaptoethanol, 20 C

Protein	stoichiometry N [1]	binding result [2]
B1	2	–
B2	–	binds

Source: article PMC6523895, “Evidence of Destabilization of the Human Thymidylate Synthase (hTS) Dimeric Structure Induced by the Interface Mutation Q62R” (Biomolecules, 2019)
